In assay [1] the target is T1, Bcl-xL (Homo sapiens, UniProt Q07817, DEL46-85). Put plainly: Cell surface display equilibrium binding assay with flow cytometry. To be noted: cells displaying Bak–eCPX fusions, biotinylated Bcl-xL and SAPE. On the technique in general: Flow cytometry measures light scatter and fluorescence of single cells or particles in a stream.
In assay [2] the target is T1, Bcl-xL. To be noted: L78A amino acid change relative to Bak(72–87); cited from earlier work.

The values below come from PMC2913173 (Journal of molecular biology, 2009).

Ends that are not written are not given here. eCPX = enhanced circularly permuted OmpX display protein

“mut7: Bak(72–87) library variant: position 74 L, 78 L, 81 L, 85 F (GQLGRQLAILGDDFNR-eCPX)”: the “Binding to Bcl-xL in words (fluorescence of cell population)” value (from here on “Binding to Bcl-xL in words”) in assay [1] is reported as “highest fluorescence”. The same measure, in the same setting: in the case of “mut8: Bak(72–87) library variant: position 74 L, 78 L, 81 F, 85 F (GQLGRQLAIFGDDFNR-eCPX)” it was “highest fluorescence”; in that of “Bak(72–85): Bak(72–87) with deletion of residues N86 and R87, eCPX fusion (GQVGRQLAIIGDDI-eCPX)”, “reduction in binding to nearly background levels”. For the substance “L78A: Bak(72–87) with the critical leucine in position 78 changed to alanine, displayed on eCPX (GQVGRQAAIIGDDINR-eCPX) [Construct L78A]”, in assay [1], the “Binding to Bcl-xL in words” value is reported as “only background fluorescence”. The “Decrease in binding affinity of Bak(72–87) for Bcl-xL” value in assay [2] is ~1000 fold.

With “Bak(72–117): eCPX fusion protein comprising helices α3 and α4 of Bak (GQVGRQLAIIGDDINRRYDSEFQTMLQHLQPTAENAYEYFTKIATS-eCPX)”, the “Binding to Bcl-xL in words” value in assay [1] was “fluorescence only slightly above background levels”. In the case of “Bak(74–87) GG: eCPX–Bak(74–87) in which the GQ sequence preceding the Bak peptide was changed to GG (GGVGRQLAIIGDDINR-eCPX)”, the “Binding to Bcl-xL in words” value in assay [1] is “bound Bcl-xL equally as well as Bak(72–87)”.
